Numbering of substitutions follows the chain as printed. Several values for one entry are separate records, joined by “and”; a condition that tells them apart may be missing. Equal entries are not always repeated.
T1: human NPRA (human, UniProt P16066 33-1061)
T1 sequence (looked up): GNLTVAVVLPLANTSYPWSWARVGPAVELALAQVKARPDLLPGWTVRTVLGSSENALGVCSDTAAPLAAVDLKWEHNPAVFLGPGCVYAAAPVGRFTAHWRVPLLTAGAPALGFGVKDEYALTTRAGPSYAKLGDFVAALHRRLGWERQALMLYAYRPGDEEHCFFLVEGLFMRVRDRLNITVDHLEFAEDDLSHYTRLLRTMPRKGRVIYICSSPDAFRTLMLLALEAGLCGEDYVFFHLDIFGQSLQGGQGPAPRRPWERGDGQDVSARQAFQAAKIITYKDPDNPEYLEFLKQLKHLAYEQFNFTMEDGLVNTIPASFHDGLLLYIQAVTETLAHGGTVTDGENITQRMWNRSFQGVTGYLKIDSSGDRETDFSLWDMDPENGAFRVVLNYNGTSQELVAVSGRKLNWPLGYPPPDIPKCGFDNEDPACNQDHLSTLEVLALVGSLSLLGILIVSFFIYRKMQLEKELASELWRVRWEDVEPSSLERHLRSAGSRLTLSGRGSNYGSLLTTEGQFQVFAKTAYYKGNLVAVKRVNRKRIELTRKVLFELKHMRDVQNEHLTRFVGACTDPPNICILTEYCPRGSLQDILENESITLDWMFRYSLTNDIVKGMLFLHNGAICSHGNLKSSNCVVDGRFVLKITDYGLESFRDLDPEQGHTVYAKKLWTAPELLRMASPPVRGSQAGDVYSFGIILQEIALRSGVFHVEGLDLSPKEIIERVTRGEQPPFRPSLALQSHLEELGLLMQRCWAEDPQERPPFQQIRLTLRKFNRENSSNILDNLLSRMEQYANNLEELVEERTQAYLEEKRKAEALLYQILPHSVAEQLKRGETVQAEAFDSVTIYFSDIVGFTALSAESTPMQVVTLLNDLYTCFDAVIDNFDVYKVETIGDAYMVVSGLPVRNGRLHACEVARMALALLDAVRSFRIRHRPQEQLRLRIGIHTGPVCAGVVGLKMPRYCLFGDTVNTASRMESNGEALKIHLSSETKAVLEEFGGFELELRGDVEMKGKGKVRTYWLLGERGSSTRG

T2: rat ANP receptor (NPR-A) (rat, UniProt P18910 29-1057)
T2 sequence (looked up): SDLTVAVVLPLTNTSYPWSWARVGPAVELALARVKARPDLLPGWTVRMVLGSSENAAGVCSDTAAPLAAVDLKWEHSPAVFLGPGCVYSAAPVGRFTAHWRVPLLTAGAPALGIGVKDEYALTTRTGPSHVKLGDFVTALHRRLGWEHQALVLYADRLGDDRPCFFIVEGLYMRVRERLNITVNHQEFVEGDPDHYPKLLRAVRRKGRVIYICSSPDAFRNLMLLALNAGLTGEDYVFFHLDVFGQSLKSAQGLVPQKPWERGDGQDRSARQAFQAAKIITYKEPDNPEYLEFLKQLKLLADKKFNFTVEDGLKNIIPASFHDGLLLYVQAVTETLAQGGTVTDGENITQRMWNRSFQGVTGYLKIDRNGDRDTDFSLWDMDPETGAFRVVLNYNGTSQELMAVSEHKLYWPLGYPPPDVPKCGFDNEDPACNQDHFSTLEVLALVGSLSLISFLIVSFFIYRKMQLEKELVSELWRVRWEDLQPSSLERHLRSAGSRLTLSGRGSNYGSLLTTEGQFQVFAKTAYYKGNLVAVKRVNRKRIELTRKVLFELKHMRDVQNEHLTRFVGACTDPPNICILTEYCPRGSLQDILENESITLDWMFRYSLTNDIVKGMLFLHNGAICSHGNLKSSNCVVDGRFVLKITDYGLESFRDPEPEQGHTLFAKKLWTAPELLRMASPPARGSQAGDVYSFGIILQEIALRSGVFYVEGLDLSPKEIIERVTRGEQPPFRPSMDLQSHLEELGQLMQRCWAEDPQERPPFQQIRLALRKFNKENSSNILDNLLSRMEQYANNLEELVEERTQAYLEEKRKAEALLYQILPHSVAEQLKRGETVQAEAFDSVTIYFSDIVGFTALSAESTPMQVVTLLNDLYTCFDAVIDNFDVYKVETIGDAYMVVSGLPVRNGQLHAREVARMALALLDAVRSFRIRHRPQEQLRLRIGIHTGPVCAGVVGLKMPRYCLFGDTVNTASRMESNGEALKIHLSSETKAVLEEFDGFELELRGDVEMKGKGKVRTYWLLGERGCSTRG

T3: rat CNP receptor (NPR-B) (rat, UniProt P16067 17-1047)
T3 sequence (looked up): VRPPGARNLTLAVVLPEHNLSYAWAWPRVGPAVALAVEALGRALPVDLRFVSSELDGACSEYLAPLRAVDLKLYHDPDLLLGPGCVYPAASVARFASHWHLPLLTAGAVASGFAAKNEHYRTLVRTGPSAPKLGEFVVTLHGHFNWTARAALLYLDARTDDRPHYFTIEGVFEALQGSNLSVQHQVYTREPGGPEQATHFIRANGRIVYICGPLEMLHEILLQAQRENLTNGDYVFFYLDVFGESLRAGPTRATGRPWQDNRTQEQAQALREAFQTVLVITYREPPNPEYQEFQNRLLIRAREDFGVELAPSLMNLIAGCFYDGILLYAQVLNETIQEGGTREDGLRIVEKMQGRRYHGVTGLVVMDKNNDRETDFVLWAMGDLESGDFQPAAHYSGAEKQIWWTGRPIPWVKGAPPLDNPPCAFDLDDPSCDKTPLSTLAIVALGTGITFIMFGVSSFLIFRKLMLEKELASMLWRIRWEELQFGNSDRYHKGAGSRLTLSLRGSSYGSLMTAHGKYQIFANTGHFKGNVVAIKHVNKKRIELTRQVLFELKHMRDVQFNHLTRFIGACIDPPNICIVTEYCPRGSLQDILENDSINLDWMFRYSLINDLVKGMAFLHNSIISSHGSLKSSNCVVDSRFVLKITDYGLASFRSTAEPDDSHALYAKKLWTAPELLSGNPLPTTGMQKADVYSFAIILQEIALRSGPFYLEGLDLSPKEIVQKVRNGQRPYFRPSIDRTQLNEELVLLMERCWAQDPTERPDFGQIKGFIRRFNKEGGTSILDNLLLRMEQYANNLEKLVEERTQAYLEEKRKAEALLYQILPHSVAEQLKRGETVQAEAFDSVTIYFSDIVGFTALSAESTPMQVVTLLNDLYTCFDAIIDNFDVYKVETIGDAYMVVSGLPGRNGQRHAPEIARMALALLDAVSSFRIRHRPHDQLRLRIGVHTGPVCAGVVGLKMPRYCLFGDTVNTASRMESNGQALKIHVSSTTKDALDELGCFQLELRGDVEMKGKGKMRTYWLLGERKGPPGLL

B1: TPP-13061 (antibody, human IgG1, lambda)
heavy: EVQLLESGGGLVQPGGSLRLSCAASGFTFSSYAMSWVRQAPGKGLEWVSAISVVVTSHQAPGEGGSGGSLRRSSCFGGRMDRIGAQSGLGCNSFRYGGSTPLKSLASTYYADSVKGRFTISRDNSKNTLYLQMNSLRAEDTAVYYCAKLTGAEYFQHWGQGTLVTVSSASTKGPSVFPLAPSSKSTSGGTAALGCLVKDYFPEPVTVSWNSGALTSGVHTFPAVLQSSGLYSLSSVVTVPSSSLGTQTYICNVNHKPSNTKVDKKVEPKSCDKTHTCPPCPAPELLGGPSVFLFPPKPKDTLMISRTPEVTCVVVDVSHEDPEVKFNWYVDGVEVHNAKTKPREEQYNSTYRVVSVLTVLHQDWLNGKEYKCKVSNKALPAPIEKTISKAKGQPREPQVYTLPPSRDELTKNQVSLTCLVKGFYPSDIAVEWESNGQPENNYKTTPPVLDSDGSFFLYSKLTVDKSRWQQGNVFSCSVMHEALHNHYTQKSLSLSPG
light: QSVLTQPPSVSGAPGQRVTISCTGSSSNIGAGYDVHWYQQLPGTAPKLLIYGNSNRPSGVPDRFSGSKSGTSASLAITGLQAEDEADYYCQSYDSSLSGVVFGGGTKLTVLGQPKAAPSVTLFPPSSEELQANKATLVCLISDFYPGAVTVAWKADSSPVKAGVETTTPSKQSNNKYAASSYLSLTPEQWKSHRSYSCQVTHEGSTVEKTVAPTECS
B2: TPP-13230 (antibody)
heavy: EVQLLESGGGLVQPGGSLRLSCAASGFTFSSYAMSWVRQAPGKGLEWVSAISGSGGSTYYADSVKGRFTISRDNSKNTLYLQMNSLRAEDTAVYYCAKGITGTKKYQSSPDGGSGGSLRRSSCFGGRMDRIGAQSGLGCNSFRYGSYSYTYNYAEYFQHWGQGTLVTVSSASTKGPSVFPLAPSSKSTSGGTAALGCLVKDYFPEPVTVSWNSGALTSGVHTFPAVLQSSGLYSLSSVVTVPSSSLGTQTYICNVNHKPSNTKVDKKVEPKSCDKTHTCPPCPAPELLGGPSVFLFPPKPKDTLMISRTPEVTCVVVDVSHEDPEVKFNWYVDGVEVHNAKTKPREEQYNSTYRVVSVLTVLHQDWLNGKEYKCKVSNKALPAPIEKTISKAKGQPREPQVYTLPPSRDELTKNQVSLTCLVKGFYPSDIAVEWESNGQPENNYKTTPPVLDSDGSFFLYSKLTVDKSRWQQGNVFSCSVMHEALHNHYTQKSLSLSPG
light: B1 light
B3: TPP-10765 (antibody, human IgG1, lambda)
heavy: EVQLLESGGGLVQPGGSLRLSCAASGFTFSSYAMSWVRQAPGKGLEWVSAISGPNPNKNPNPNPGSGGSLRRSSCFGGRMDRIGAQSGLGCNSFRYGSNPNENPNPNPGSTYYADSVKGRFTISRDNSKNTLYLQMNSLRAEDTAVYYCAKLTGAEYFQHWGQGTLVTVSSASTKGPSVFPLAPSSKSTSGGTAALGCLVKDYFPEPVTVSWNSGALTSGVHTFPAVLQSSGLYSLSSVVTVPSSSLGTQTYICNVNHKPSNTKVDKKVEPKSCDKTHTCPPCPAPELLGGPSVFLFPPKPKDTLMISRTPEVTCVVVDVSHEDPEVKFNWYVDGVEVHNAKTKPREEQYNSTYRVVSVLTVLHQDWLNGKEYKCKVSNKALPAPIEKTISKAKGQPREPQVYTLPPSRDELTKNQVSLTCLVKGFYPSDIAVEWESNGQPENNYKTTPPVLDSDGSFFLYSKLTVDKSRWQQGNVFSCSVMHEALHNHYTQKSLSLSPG
light: B1 light
B4: TPP-10282 (antibody, human IgG1, lambda)
heavy: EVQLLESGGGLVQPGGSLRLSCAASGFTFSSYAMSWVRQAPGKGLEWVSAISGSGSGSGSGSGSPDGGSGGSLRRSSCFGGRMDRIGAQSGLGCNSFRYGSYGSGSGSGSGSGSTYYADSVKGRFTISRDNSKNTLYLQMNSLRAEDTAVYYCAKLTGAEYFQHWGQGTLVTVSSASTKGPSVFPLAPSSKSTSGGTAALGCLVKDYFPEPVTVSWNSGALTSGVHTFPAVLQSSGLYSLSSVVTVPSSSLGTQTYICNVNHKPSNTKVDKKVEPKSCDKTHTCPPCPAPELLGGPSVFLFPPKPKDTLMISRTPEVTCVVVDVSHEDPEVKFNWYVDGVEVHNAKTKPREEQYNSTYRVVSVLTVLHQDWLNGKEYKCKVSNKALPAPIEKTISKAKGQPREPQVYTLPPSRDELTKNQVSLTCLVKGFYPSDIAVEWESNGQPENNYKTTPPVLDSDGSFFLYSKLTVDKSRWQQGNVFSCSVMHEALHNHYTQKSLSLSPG
light: B1 light
B5: TPP-10294 (antibody, human IgG1, lambda)
heavy: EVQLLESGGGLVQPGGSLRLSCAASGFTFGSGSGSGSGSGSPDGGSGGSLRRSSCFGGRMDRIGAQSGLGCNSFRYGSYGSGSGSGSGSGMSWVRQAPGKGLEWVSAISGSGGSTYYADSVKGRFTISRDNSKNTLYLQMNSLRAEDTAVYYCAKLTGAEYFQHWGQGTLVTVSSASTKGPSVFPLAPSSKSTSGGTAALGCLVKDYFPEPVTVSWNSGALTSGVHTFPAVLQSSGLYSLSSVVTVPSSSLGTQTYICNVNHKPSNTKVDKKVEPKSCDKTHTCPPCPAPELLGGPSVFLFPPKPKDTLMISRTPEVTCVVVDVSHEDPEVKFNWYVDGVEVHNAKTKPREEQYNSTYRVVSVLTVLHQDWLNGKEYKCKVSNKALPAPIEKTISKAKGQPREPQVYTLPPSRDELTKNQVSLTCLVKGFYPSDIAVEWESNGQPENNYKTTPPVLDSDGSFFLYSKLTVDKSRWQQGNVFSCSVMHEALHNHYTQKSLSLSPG
light: B1 light
B6: TPP-13054 (antibody, human IgG1, lambda)
heavy: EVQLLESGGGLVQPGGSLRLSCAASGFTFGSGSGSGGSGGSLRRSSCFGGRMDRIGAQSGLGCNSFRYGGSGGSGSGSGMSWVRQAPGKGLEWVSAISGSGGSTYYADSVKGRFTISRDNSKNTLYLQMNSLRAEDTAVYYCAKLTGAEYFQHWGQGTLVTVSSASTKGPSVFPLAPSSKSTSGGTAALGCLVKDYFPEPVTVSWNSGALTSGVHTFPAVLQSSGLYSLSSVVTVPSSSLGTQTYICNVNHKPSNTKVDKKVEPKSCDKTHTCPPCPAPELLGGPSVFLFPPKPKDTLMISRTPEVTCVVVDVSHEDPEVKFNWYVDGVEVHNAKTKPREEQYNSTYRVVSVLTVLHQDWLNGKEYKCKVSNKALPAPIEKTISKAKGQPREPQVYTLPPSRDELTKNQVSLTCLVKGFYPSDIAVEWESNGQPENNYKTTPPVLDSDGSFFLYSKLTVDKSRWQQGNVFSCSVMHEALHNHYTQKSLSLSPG
light: B1 light
B7: TPP-10290 (antibody)
heavy: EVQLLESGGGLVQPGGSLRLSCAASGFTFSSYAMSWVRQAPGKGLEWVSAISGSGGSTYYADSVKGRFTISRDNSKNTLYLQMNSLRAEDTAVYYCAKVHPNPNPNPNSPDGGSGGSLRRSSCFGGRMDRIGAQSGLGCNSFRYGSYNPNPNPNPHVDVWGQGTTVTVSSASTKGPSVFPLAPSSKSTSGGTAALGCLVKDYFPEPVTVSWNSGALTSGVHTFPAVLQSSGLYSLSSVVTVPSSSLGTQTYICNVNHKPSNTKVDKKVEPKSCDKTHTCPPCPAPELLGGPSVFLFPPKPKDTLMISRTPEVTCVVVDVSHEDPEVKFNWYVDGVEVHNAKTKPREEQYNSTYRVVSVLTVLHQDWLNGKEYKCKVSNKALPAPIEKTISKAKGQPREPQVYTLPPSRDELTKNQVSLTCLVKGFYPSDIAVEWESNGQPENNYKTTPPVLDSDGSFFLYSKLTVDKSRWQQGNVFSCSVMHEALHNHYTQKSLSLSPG
light: B1 light
B8: TPP-10845 (antibody, human IgG1, lambda)
heavy: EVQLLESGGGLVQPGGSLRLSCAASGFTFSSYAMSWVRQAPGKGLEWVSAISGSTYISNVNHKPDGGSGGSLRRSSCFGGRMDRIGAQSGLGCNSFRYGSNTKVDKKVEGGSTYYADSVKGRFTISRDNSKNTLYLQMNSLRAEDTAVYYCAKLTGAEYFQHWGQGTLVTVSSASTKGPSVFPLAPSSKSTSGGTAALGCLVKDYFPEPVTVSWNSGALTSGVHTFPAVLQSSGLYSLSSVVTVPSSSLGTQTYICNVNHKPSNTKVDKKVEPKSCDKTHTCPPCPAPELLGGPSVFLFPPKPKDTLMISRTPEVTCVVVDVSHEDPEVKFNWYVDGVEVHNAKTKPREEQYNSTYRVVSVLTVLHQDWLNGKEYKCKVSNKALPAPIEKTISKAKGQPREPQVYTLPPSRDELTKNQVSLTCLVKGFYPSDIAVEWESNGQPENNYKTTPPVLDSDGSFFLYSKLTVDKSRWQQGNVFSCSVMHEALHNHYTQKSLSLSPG
light: B1 light
B9: TPP-10847 (antibody, human IgG1, lambda)
heavy: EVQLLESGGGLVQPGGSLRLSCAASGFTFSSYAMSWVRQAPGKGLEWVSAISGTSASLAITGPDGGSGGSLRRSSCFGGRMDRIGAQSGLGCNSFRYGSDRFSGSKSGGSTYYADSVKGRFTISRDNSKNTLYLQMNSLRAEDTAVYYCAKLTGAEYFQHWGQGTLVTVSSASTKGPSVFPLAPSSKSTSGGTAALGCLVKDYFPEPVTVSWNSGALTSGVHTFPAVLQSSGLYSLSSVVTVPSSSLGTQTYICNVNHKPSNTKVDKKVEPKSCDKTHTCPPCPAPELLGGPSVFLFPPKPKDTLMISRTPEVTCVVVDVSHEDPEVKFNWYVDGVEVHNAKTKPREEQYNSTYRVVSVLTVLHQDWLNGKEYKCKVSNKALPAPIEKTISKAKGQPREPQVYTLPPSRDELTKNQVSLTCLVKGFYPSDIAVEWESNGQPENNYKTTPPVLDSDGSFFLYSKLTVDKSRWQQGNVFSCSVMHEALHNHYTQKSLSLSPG
light: B1 light
B10: TPP-10283 (antibody, human IgG1, lambda)
heavy: not shown
light: B1 light
B11: TPP-10274 (antibody)
heavy: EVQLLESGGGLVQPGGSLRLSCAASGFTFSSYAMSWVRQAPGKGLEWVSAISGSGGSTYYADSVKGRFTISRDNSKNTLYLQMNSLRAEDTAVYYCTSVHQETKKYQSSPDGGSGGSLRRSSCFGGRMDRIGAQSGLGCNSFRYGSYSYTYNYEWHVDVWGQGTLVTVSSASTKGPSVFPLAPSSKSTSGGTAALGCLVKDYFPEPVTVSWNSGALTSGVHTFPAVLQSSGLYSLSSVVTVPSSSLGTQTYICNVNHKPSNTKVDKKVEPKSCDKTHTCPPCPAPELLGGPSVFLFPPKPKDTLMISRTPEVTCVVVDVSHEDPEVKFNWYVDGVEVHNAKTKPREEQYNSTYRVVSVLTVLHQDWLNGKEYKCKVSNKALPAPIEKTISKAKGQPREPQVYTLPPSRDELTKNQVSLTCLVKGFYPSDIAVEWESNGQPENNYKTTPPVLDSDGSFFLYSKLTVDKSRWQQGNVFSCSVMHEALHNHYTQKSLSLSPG
light: B1 light
B12: TPP-10361 (antibody, human IgG1, lambda)
heavy: not shown
light: QSVLTQPPSVSGAPGQRVTISCTGSSSNIGAGYDVHWYQQLPGTAPKLLIYGSGSGSGSGSGSPDGGSGGSLRRSSCFGGRMDRIGAQSGLGCNSFRYGSYGSGGSGSGSGNRPSGVPDRFSGSKSGTSASLAITGLQAEDEADYYCQSYDSSLSGVVFGGGTKLTVLGQPKAAPSVTLFPPSSEELQANKATLVCLISDFYPGAVTVAWKADSSPVKAGVETTTPSKQSNNKYAASSYLSLTPEQWKSHRSYSCQVTHEGSTVEKTVAPTECS
B13: TPP-10355 (antibody, human IgG1, lambda)
heavy: not shown
light: QSVLTQPPSVSGAPGQRVTISCTGSSSNIGAGYDVHWYQQLPGTAPKLLIYGNSNRPSGVPDRFSGSKSGTSASLAITGLQAEDEADYYCAAWNPNPNPNPNPNGGSGGSLRRSSCFGGRMDRIGAQSGLGCNSFRYGSNPNPNPNPNPNVFGSGTKVTVLGQPKAAPSVTLFPPSSEELQANKATLVCLISDFYPGAVTVAWKADSSPVKAGVETTTPSKQSNNKYAASSYLSLTPEQWKSHRSYSCQVTHEGSTVEKTVAPTECS
B14: TPP-11156 (antibody, human IgG1, lambda)
heavy: not shown
light: B1 light
B15: TPP-10992 (antibody, human IgG4 S228P, lambda)
heavy: not shown
light: B1 light
B16: TPP-9902 (antibody)
heavy: not shown
light: B1 light
B17: TPP-9465 (antibody)
heavy: not shown
light: B1 light
B18: TPP-12897 (antibody)
heavy: not shown
light: B1 light with S98D
B19: TPP-12377 (antibody)
heavy: not shown
light: B1 light

Molecular target: T1, human NPRA
Experiment: cell-based or functional assay

Row | average rel logEC50 | rel. logEC50* pcs | rel. logEC50 pcs 9 | rel. logEC50 pcs 5 | rel. logEC50 pcs 6 | rel. logEC50 pcs 7 | rel. logEC50 pcs 1 | rel. logEC50 pcs 2 | rel. logEC50 pcs 4 | rel. logEC50 pcs 3 | Binder
1 | -0.7 | -0.6 and -0.8 | – | – | – | – | – | – | – | – | B1
2 | – | – | -0.3 | – | – | – | – | – | – | – | B2
3 | -0.4 | – | – | -0.9 | -0.4 | 0.2 | – | – | – | – | B3
4 | 0.1 | – | – | 0.2 | – | – | 0.3 | -0.2 | 0.1 | – | B4
5 | -0.3 | -0.5 and -0.6 and -0.4 | – | – | – | 0 | – | – | -0.2 | – | B5
6 | -0.8 | -0.7 and -0.8 | – | – | – | – | – | – | – | – | B6
7 | -0.5 | – | – | – | – | – | -0.8 | -0.1 | – | – | B7
8 | -0.6 | – | – | -0.4 | -0.8 | – | – | – | – | – | B8
9 | -0.5 | – | – | 0 | -0.9 | – | – | – | – | – | B9
10 | – | – | – | -0.8 | – | – | – | – | – | – | B10
11 | -0.1 | – | – | – | – | 0 | – | -0.3 | – | -0.2 | B11
12 | – | – | – | -0.1 | – | – | – | – | – | – | B12
13 | -0.2 | – | – | – | – | – | – | -0.6 | -0.3 | 0.2 | B13

Molecular target: T2, rat ANP receptor (NPR-A)
Experiment: cell-based or functional assay

Row | EC50, fluorescence of cGMP reporter cells [nM] | Binder
14 | 1200 | B14
15 | 180 | B15
16 | 2300 | B16

Molecular target: T3, rat CNP receptor (NPR-B)
Experiment: cell-based or functional assay

Row | EC50, luminescence of cGMP reporter cells [nM] | Binder
17 | 5.2 | B17
18 | 10 | B18
19 | 4.1 | B19

Reference: patent US20210079056A1 (Bayer, published 2021)
